By EC50 is commonly meant the concentration at which the effect is half-maximal. A higher EC50 goes with a need for much substance.

This assay concerns the target Human CD3e/g protein (human) (UniProt P07766). Kind of assay: ELISA, coated hCD3e/g. Background: An ELISA detects its analyte on a solid surface through an enzyme-linked reagent.

B1: mAb001 (antibody, V domains shown)
VH: QVQLQQSGPELVKPGASVKISCKASGYSFTNYYMHWVKQRPGQGLEWIGWTYPGNNNIKYNEKFKGKATLTADTSSSTAYMQLSSLTSEDSAVYYCARDGYGYYFFDYWGQGIILTVSS
VL: DIVMSQSPSSLAVSAGEKVTMSCKSSQSLLNNRTRKNYLAWYQQKPGQSPKLLIYWASTRESGVPDRFTGSGSGTDFTLTISSVQAEDLAIYYCKQSYTLRTFGGGTKLAIK
As to B1, the EC50 worked out at 0.21 nM, the OD450 nm at 0.000853 nM came to 0.207 OD450 nm, the OD450 nm at 0.0043 nM came out at 0.12 OD450 nm and the OD450 nm at 0.02 nM worked out at 0.24 OD450 nm. Besides, the OD450 nm at 0.11 nM worked out at 0.89 OD450 nm, the OD450 nm at 0.53 nM was 3.2 OD450 nm, the OD450 nm at 2.67 nM stood at 3.64 OD450 nm and the OD450 nm at 13.3 nM stood at 3.67 OD450 nm. The OD450 nm at 66.7 nM was found to be 3.67 OD450 nm.

B2: mAb007 (antibody, V domains shown)
VH: QVQLQQSGPELVKPGASVKISCKASGSTFTDNYIHWVKQRPGQGLEWIGWIYPGSVNIKYNEKFKDKATLTADTSSTTAYMQLSSLSSEDSAIYYCARDISRYYFDYWGQGTTLTVSS
VL: DIVMSQSPSSLAVSAGERVTMNCKSSQSLLNSRTRKNYLAWYQQKPGQSPKLLIYWASTRESGVPDRFTGSGSGTDFTLTISSVQAEDLAVYYCKQSFILRTFGGGTKLAIK
For B2, the EC50 is 0.22 nM, the OD450 nm at 0.000853 nM was 0.123 OD450 nm, the OD450 nm at 0.0043 nM is 0.111 OD450 nm and the OD450 nm at 0.02 nM worked out at 0.27 OD450 nm. This molecule came in with an OD450 nm at 0.11 nM of 0.76 OD450 nm, an OD450 nm at 0.53 nM of 2.96 OD450 nm, an OD450 nm at 2.67 nM of 3.39 OD450 nm and an OD450 nm at 13.3 nM of 3.47 OD450 nm. The molecule further gave an OD450 nm at 66.7 nM of 3.41 OD450 nm.

These data come from patent US20250346668A1.
